The values below come from patent US20180135060A1 (OURO FINO SAUDE ANIMAL LTDA, published 2018).

The assay concerns the target T1, Rrp4 protein of the Pyrococcus abyssi exosome, as encoded by pMRKA-EXO (Pyrococcus abyssi, UniProt Q9V120 2-263).
T1 construct: Co-expressed in E. coli; also called PAB0419
T1 sequence: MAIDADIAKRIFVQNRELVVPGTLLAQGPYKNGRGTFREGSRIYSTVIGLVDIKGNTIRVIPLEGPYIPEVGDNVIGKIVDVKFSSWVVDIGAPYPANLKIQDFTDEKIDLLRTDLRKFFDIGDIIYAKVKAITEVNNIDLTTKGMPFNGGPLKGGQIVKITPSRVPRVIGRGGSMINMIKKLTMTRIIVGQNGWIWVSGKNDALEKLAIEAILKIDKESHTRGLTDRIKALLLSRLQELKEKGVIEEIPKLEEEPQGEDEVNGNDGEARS
Put plainly: co-expression in E. coli and co-purification, gel (FIG. 11).

B1: Rrp41 protein of the Pyrococcus abyssi exosome, as encoded by pMRKA-EXO (R89T, K91S) (other)
chain: MATRAEKPEGLKLIDENGRRIDGRKKYELRPIKMEVGVLKNANGSAYIEWGKNKIIAAVYGPRELHPKHLQRPDRAILRVRYNMAPFSVEETKSPGPDRRSIEISKVIKGALEPALILEMFPRTAIDVFIEVLQADAGTRVAGITAASLALADAGIPMRDLVAACAAGKIEGEIVLDLNKEEDNYGEADVPVAIMPLKNDITLLQMDGYLTKDEFIEAVKLAIKGAKAVYQKQREALKEKYLKIAQEVEGS
notes: also called PAB0420
In the case of B1, the binding result was “binds”.
